# Reference: paper PMC6037002, “Drug targeting to decrease cardiotoxicity – determination of the cytotoxic effect of GnRH-based conjugates containing doxorubicin, daunorubicin and methotrexate on human cardiomyocytes and endothelial cells” (Beilstein Journal of Organic Chemistry, 2018)
# Where two headings read alike, the source gives them in different places.
# Legend:
# [1] = tested on: human umbilical vein endothelial cells (HUVEC); experiment: Impedimetric measurement (xCELLigence SP), delta slope, HUVEC; conditions: for delta slope (DS), short-term / delta slope (DS), long-term: HUVEC, three parallels; for delta slope (DS), short-term: 0–2 h; for delta slope (DS), long-term: 0–72 h; for Cardiotoxicity, HUVEC: grade +++/++/+/0, key not given, summary of impedimetric cytotoxicity; for cytotoxic effect on HUVEC, result in words: long-term (0–72 h), 10^−8–10^−6 mol/L, impedimetry, one-way ANOVA
# [2] = cited from earlier work
# Experimental: The GnRH derivatives were prepared by solid phase peptide synthesis (SPPS) according to Fmoc/t-Bu strategy (Supporting Information File 2). Three drug molecules, doxorubicin (Dox), daunorubicin (Dau) and methotrexate (Mtx), were employed in the preparation of drug conjugates. Dox has three potential conjugation sites; i) a primary OH group at C-14 on the aglycone part, which is suitable for ester bond formation, ii) an oxo group at C-13 is available for the generation of an oxime linkage and iii) the amino group on the daunosamine sugar moiety, which can be used for amide bond formation. The d ...
# [3] = tested on: HT-29 human colon adenocarcinoma cells; conditions: MTT assay; cited from earlier work
# Text: (§1) Table 1 Comparative study of cytotoxic effects and cardiotoxicity elicited by GnRH-based antitumor compounds (1–15) and reference substances (AN-152, Dox, Dau, Mtx). IC50 values show antitumor cytotoxic characteristics of the conjugates in human breast cancer (MCF-7), human colorectal adenocarcinoma (HT-29) and human acute monocytic leukemia (MM6) derived cell lines as representative tumor cells.
# [4] = tested on: MCF-7 human breast adenocarcinoma cells; conditions: MTT assay; cited from earlier work
# Text: as §1
# [5] = tested on: human acute monocytic leukemia (MonoMac6) cells; conditions: cited from earlier work
# Text: as §1
# [6] = tested on: primary human cardiac myocytes (HCM); conditions: for delta slope (DS), short-term / delta slope (DS), long-term: HCM, three parallels; for delta slope (DS), short-term: 0–2 h; for delta slope (DS), long-term: 0–72 h
substance,measurement,setting,value
[^4Lys(Ac)]-GnRH-III(Dau=Aoa) [conjugate 5],"delta slope (DS), short-term","[1]; Table S3a, 10^-6 mol/L",0.002
same,"delta slope (DS), short-term","[1]; Table S3a, 10^-7 mol/L",0.004
same,"delta slope (DS), short-term","[1]; Table S3a, 10^-8 mol/L",-0.001
same,"delta slope (DS), long-term","[1]; Table S3a, 10^-6 mol/L",-0.001
same,"delta slope (DS), long-term","[1]; Table S3a, 10^-7 mol/L",-0.001
same,"delta slope (DS), long-term","[1]; Table S3a, 10^-8 mol/L",-0.001
same,"Cardiotoxicity, HUVEC",[1],0
same,"cytotoxic effect on HUVEC, result in words",[1],completely lost the cytotoxic effect
same,"enzymatic stability, result in words",[2],increased the enzymatic stability
same,IC50,[3],7.4 ± 2.6 µM
same,IC50,[4],3.1 ± 1.7 µM
same,IC50,[5],0.925 ± 0.07 µM
same,"delta slope (DS), short-term","[6]; Table S3b, 10^-6 mol/L",-0.005
same,"delta slope (DS), short-term","[6]; Table S3b, 10^-7 mol/L",-0.001
same,"delta slope (DS), short-term","[6]; Table S3b, 10^-8 mol/L",-0.002
same,"delta slope (DS), long-term","[6]; Table S3b, 10^-6 mol/L",−0.003
same,"delta slope (DS), long-term","[6]; Table S3b, 10^-7 mol/L",-0.001
same,"delta slope (DS), long-term","[6]; Table S3b, 10^-8 mol/L",0.001
[^4N-MeSer]-GnRH-III(Dau=Aoa) [conjugate 6],"delta slope (DS), short-term","[1]; Table S4a, 10^-6 mol/L",0.006
same,"delta slope (DS), short-term","[1]; Table S4a, 10^-7 mol/L",0.002
same,"delta slope (DS), short-term","[1]; Table S4a, 10^-8 mol/L",0.011
same,"delta slope (DS), long-term","[1]; Table S4a, 10^-6 mol/L",0.001
same,"delta slope (DS), long-term","[1]; Table S4a, 10^-7 mol/L",-0.001
same,"delta slope (DS), long-term","[1]; Table S4a, 10^-8 mol/L",0.001
same,"Cardiotoxicity, HUVEC",[1],0
same,"cytotoxic effect on HUVEC, result in words",[1],completely lost the cytotoxic effect
same,"enzymatic stability, result in words",[2],increased the enzymatic stability
same,IC50,[4],10.6 ± 2.1 µM
same,IC50,[5],> 1 µM
same,"delta slope (DS), short-term","[6]; Table S4b, 10^-6 mol/L",0.001
same,"delta slope (DS), short-term","[6]; Table S4b, 10^-7 mol/L",-0.001
same,"delta slope (DS), short-term","[6]; Table S4b, 10^-8 mol/L",-0.005
same,"delta slope (DS), long-term","[6]; Table S4b, 10^-6 mol/L",0.001
same,"delta slope (DS), long-term","[6]; Table S4b, 10^-7 mol/L",-0.002
same,"delta slope (DS), long-term","[6]; Table S4b, 10^-8 mol/L",-0.002
same,"Cardiotoxicity, HCM","[6]; grade +++/++/+/0, key not given, summary of impedimetric cytotoxicity",0
same,"cytotoxic effect on HCM, result in words","[6]; long-term (0–72 h), 10^−8–10^−6 mol/L (free drugs 10^−12–10^−6 mol/L), impedimetry, one-way ANOVA",completely lost their cytotoxic effect
